Assay results: the supplement of paper PMC9732359
± gives the uncertainty stated by the source.

Assay: protein stability index of a GFP-peptide fusion (yeast GPS) (PSI 1-4); higher = more stable; sorted into four equal gates, so the index is relative within each strain
Procedure, shortened: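 Tiled 17-residue peptides from yeast proteins were fused downstream of GFP on a plasmid that also expresses Cherry, and the pooled library was carried in yeast. Mid-log cultures grown in leucine-free medium were sorted into four equal gates by GFP/Cherry fluorescence ratio. Plasmids from each gate were PCR-amplified and Illumina-sequenced, and reads were assigned to strains by barcodes. Each peptide's protein stability index is the sum, over gates, of the gate's read frequency multiplied by its gate number.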

Sequence	protein stability index (doa10∆)	protein stability index (pdr5∆)	protein stability index (san1∆)	protein stability index (ubr1∆)
PQKYVLHPQLHEVQYQE [SIN4]	1.49 ± 0.13	1.88 ± 0.082	2.15 ± 0.14	1.6 ± 0.064
PQQNKTPFSFGTANNNS [YJL041W/NSP1]	3.28 ± 0.046	3.2 ± 0.038	3.12 ± 0.035	3.05 ± 0.034
PQSAPNQMGMGTNNGMS [YOR098C/NUP1]	3.4 ± 0.12	3.14 ± 0.13	3.29 ± 0.098	3.31 ± 0.096
PRDLLRVIIQELRFPSP [PRP28]	1.74 ± 0.047	1.94 ± 0.055	1.78 ± 0.064	1.72 ± 0.061
PRGVLLYGPPGTGKTML [RPT3]	3.07 ± 0.089	2.57 ± 0.11	2.9 ± 0.081	2.72 ± 0.074
PRQLHNTHWGLVCPAET [RPB2]	1.6 ± 0.089	1.7 ± 0.07	1.47 ± 0.12	1.2 ± 0.088
PRSDAQAIKEASYVNIP [RPS0A]	2.88 ± 0.058	2.76 ± 0.048	2.71 ± 0.058	2.47 ± 0.034
PRVKGFKMNEIVPLHSP [SEC65]	2.89 ± 0.087	3.01 ± 0.12	3.09 ± 0.079	2.87 ± 0.066
PRVQGFYVPQARNVTFD [GRR1]	2.99 ± 0.064	2.68 ± 0.056	2.91 ± 0.038	3.02 ± 0.045
PRYTYHTIFSDVCKTRF [YML031W/NDC1]	2.77 ± 0.055	3 ± 0.051	2.62 ± 0.035	2.82 ± 0.055
PSAVAGFINQKNLKPQE [YIL149C/MLP2]	3.16 ± 0.099	3.1 ± 0.084	2.98 ± 0.05	3.02 ± 0.042
PSINLDPDNTSFSDENS [ESC2]	2.83 ± 0.072	2.93 ± 0.054	2.58 ± 0.064	3.07 ± 0.029
PSKVSKIDSHVVLSFSG [PRE6]	1.71 ± 0.062	1.77 ± 0.058	1.74 ± 0.12	1.87 ± 0.057
PSLEVASEYIETLGLKY [FAS1]	3.02 ± 0.069	3.3 ± 0.082	3.21 ± 0.07	3.05 ± 0.067
PSQTLFSISYKPPTQKT [SRP21]	2.23 ± 0.036	2.2 ± 0.039	1.97 ± 0.056	2.1 ± 0.032
PSSEVYSPIEKESPWKI [RRP6]	2.87 ± 0.15	3.03 ± 0.1	2.82 ± 0.12	3.29 ± 0.11
PSTSSNMDVGNPRKRKA [GAL11]	2.65 ± 0.18	2.25 ± 0.12	2.75 ± 0.12	3.27 ± 0.088
PSTTDDENGDKNDNGGK [SWI3]	3.09 ± 0.089	3.3 ± 0.069	3.23 ± 0.05	3.25 ± 0.079
PSVAAEYVYFFNNTSVI [RPC40]	2.09 ± 0.056	1.48 ± 0.057	1.54 ± 0.088	1.79 ± 0.039
PSYSPTSPSYSPTSPSY [RPO21]	2.65 ± 0.03	2.884 ± 0.028	2.859 ± 0.028	2.815 ± 0.023
PTETYSDVGGLDKQIEE [RPT5]	3.36 ± 0.21	3.35 ± 0.11	3.12 ± 0.068	3.21 ± 0.13
PTQTKGNDAKPAKVEDV [YLR335W/NUP2]	3.21 ± 0.057	3.25 ± 0.053	3.27 ± 0.039	3.1 ± 0.047
PTSPSYSPTSPSYSPTS [RPO21]	2.59 ± 0.044	2.99 ± 0.041	2.66 ± 0.04	2.85 ± 0.037
PTSVKLLKTTVPIVSKK [POP3]	3.21 ± 0.1	2.94 ± 0.068	2.86 ± 0.083	3 ± 0.075
PTTMVTNQKDTNDHVDK [ISW2]	1.96 ± 0.062	2.03 ± 0.064	1.67 ± 0.1	1.75 ± 0.055
PTTVSYIFCISRTIGMV [SCL1]	1.99 ± 0.039	1.97 ± 0.051	2.88 ± 0.036	1.95 ± 0.039
